Source: the RNAGym collection of RNA variant scans (doi:10.1093/molbev/msab373)

B1: Azoarcus group I ribozyme (parent)
chain: GUGCCUUGCGCCGGGAAACCACGCAAGGGAUGGUGUCAAAUUCGGCGAAACCUAAGCGCCCGCCCGGGCGUAUGGCAACGCCGAGCCAAGCUUCGGCGCCUGCGCCGAUGAAGGUGUAGAGACUAGACGGCACCCACCUAAGGCAAACGCUAUGGUGAAGGCAUAGUCCAGGGAGUGGCGAAAGUCACACAAACCGG

Variants of: B1
Assay: reverse-splicing fitness (ratio to wild type); higher = more active; in vitro selection; Mg2+ level not given
In short: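 An in vitro group I ribozyme library with randomized positions was T7-transcribed and gel-purified. In triplicate, 10 pmol RNA in EPPS pH 7.5 was reacted with 50 pmoles of a 30-nt RNA substrate for 1 h at 37 °C across several added MgCl2 levels (1–48 mM), then stopped with EDTA. Products were reverse transcribed from a substrate-complementary primer, PCR-amplified and sequenced (HiSeq 4000). Fitness is a variant's read proportion after selection over that before, normalised to wild type.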

Q: With A111C A120U A145C C150U C169G U176G as the variant, how does the reverse-splicing fitness read?
A: 0.00229

Q: For A111C A120U A145C C150U C169G U176A, which reverse-splicing fitness is on record?
A: 0.00383

Q: For A111C A120U A145C C150U C169G U176C, which reverse-splicing fitness is on record?
A: 0.00324

Q: With A111C A120U A145G C150A C169A U176G as the variant, how does the reverse-splicing fitness read?
A: 0.00318

Q: With A111C A120U A145G C150A C169A U176A as the variant, how does the reverse-splicing fitness read?
A: 0.0071

Q: With A111C A120U A145G C150A C169A U176C as the variant, how does the reverse-splicing fitness read?
A: 0.00438

Q: For A111C A120U A145C C150U C169U, which reverse-splicing fitness is on record?
A: 0.0171

Q: Which reverse-splicing fitness does the source give for A111C A120U A145C C150U C169A here?
A: 0.00231

Q: Which reverse-splicing fitness does the source give for A111C A120U A145C C150U C169G here?
A: 0.0128

Q: With A111C A120U A145C C150A C169A as the variant, how does the reverse-splicing fitness read?
A: 0.00208

Q: For A111C A120U A145C C150A C169G, which reverse-splicing fitness is on record?
A: 0.0044

Q: With A111C A120U A145C C150A C169U as the variant, how does the reverse-splicing fitness read?
A: 0.00533

Q: For A111C A120G A145G U176G, which reverse-splicing fitness is on record?
A: 0.00588

Q: For A111C A120G A145G U176A, which reverse-splicing fitness is on record?
A: 0.0379

Q: With A111C A120G A145G U176C as the variant, how does the reverse-splicing fitness read?
A: 0.0456

Q: With A111C A120G C150G C169U U176C as the variant, how does the reverse-splicing fitness read?
A: 0.0154

Q: Which reverse-splicing fitness does the source give for A111C A120G C150G C169U U176G here?
A: 0.00441

Q: For A111C A120G C150G C169U U176A, which reverse-splicing fitness is on record?
A: 0.00966

Q: With A111C A120U A145U C150A C169G as the variant, how does the reverse-splicing fitness read?
A: 0.00604

Q: For A111C A120U A145U C150A C169A, which reverse-splicing fitness is on record?
A: 0.00263

Q: With A111C A120U A145G C150U C169U U176G as the variant, how does the reverse-splicing fitness read?
A: 0.00321

Q: With A111C A120U A145G C150U C169U U176C as the variant, how does the reverse-splicing fitness read?
A: 0.0178

Q: With A111C A120U A145G C150U C169U U176A as the variant, how does the reverse-splicing fitness read?
A: 0.0118

Q: Which reverse-splicing fitness does the source give for A111C A120U A145C U176G here?
A: 0.0856

Q: For A111C A120U A145C U176C, which reverse-splicing fitness is on record?
A: 0.17

Q: Which reverse-splicing fitness does the source give for A111C A120U A145C U176A here?
A: 0.244

Q: With A111C A120G C150G C169A U176A as the variant, how does the reverse-splicing fitness read?
A: 0.00971

Q: With A111C A120G C150G C169A U176G as the variant, how does the reverse-splicing fitness read?
A: 0.00481

Q: For A111C A120G C150G C169A U176C, which reverse-splicing fitness is on record?
A: 0.0109

Q: For A111C A120U A145G, which reverse-splicing fitness is on record?
A: 0.675

Q: For A111C A120U A145C, which reverse-splicing fitness is on record?
A: 0.598

Q: Which reverse-splicing fitness does the source give for A111C A120U A145U here?
A: 0.629

Q: For A111C A120G A145U C150U U176G, which reverse-splicing fitness is on record?
A: 0.00526

Q: For A111C A120G A145U C150U U176A, which reverse-splicing fitness is on record?
A: 0.0265

Q: Which reverse-splicing fitness does the source give for A111C A120G A145U C150U U176C here?
A: 0.0338

Q: Which reverse-splicing fitness does the source give for A111C A120U A145G C150G C169G here?
A: 0.0117

Q: With A111C A120U A145G C150G C169A as the variant, how does the reverse-splicing fitness read?
A: 0.00873

Q: For A111C A120U A145G C150G C169U, which reverse-splicing fitness is on record?
A: 0.0135

Q: For A111C A120G C169U U176G, which reverse-splicing fitness is on record?
A: 0.00657

Q: Which reverse-splicing fitness does the source give for A111C A120G C169U U176A here?
A: 0.0433

Q: Which reverse-splicing fitness does the source give for A111C A120G C169U U176C here?
A: 0.0498

Q: For A111C A120U A145C C169G, which reverse-splicing fitness is on record?
A: 0.0517

Q: With A111C A120U A145C C169U as the variant, how does the reverse-splicing fitness read?
A: 0.0701

Q: With A111C A120U A145C C169A as the variant, how does the reverse-splicing fitness read?
A: 0.00529

Q: Which reverse-splicing fitness does the source give for A111C A120U A145C C150U here?
A: 0.18

Q: For A111C A120U A145C C150G, which reverse-splicing fitness is on record?
A: 0.0809

Q: With A111C A120U A145C C150A as the variant, how does the reverse-splicing fitness read?
A: 0.0314

Q: For A111C A120U A145U C150A, which reverse-splicing fitness is on record?
A: 0.0636

Q: With A111C A120G C150A C169G U176A as the variant, how does the reverse-splicing fitness read?
A: 0.0175

Q: For A111C A120G C150A C169G U176C, which reverse-splicing fitness is on record?
A: 0.0245

Q: With A111C A120G C150A C169G U176G as the variant, how does the reverse-splicing fitness read?
A: 0.00531

Q: For A111C A120U A145G C150G U176G, which reverse-splicing fitness is on record?
A: 0.00515

Q: For A111C A120U A145G C150G U176C, which reverse-splicing fitness is on record?
A: 0.0349

Q: Which reverse-splicing fitness does the source give for A111C A120U A145G C150G U176A here?
A: 0.0151

Q: With A111C A120U A145G C150G C169A U176G as the variant, how does the reverse-splicing fitness read?
A: 0.00554

Q: With A111C A120U A145G C150G C169A U176A as the variant, how does the reverse-splicing fitness read?
A: 0.0118

Q: Which reverse-splicing fitness does the source give for A111C A120U A145G C150G C169A U176C here?
A: 0.009

Q: Which reverse-splicing fitness does the source give for A111C A120U A145G C150G C169U U176A here?
A: 0.00885

Q: With A111C A120U A145G C150G C169U U176C as the variant, how does the reverse-splicing fitness read?
A: 0.00769

Q: For A111C A120U A145G C150G C169U U176G, which reverse-splicing fitness is on record?
A: 0.00436

Q: Which reverse-splicing fitness does the source give for A111C A120G A145U C169G U176C here?
A: 0.0343

Q: Which reverse-splicing fitness does the source give for A111C A120G A145U C169G U176A here?
A: 0.0277

Q: With A111C A120G A145U C169G U176G as the variant, how does the reverse-splicing fitness read?
A: 0.00448

Q: Which reverse-splicing fitness does the source give for A111C A120G A145U C150A C169A U176A here?
A: 0.0109

Q: With A111C A120G A145U C150A C169A U176C as the variant, how does the reverse-splicing fitness read?
A: 0.011

Q: For A111C A120G A145U C150A C169A U176G, which reverse-splicing fitness is on record?
A: 0.00497

Q: Which reverse-splicing fitness does the source give for A111C A120U A145G C150U C169U here?
A: 0.065

Q: Which reverse-splicing fitness does the source give for A111C A120U A145G C150U C169A here?
A: 0.00795

Q: With A111C A120U A145G C150U C169G as the variant, how does the reverse-splicing fitness read?
A: 0.0471

Q: For A111C A120G C150A C169G, which reverse-splicing fitness is on record?
A: 0.0242

Q: With A111C A120G C150A C169A as the variant, how does the reverse-splicing fitness read?
A: 0.0171

Q: Which reverse-splicing fitness does the source give for A111C A120G C150A C169U here?
A: 0.0203

Q: With A111C A120U A145G C150A U176G as the variant, how does the reverse-splicing fitness read?
A: 0.0111

Q: With A111C A120U A145G C150A U176A as the variant, how does the reverse-splicing fitness read?
A: 0.046

Q: Which reverse-splicing fitness does the source give for A111C A120U A145G C150A U176C here?
A: 0.0554

Q: For A111C A120G C169G U176A, which reverse-splicing fitness is on record?
A: 0.0304

Q: Which reverse-splicing fitness does the source give for A111C A120G C169G U176G here?
A: 0.00449

Q: With A111C A120G C169G U176C as the variant, how does the reverse-splicing fitness read?
A: 0.0444

Q: With A111C A120G C150G C169A as the variant, how does the reverse-splicing fitness read?
A: 0.0136

Q: Which reverse-splicing fitness does the source give for A111C A120G C150G C169U here?
A: 0.0177

Q: Which reverse-splicing fitness does the source give for A111C A120G C150G C169G here?
A: 0.0183

Q: For A111C A120G A145U C150U C169A U176A, which reverse-splicing fitness is on record?
A: 0.0161

Q: Which reverse-splicing fitness does the source give for A111C A120G A145U C150U C169A U176G here?
A: 0.00499
